Source: patent publication US20060246004A1 (Genentech, published 2006)
Blank lines part the entries; values can stand above or below the molecule they belong to.

Assays:
human FcRn (human) [1] = target: human FcRn (human) (UniProt P55899); assay: BIAcore equilibrium analysis, FcRn immobilised on CM5 chip, pH 6.0
human FcRn (human) [2] = target: human FcRn (human) (UniProt P55899); assay: BIAcore, FcRn immobilised, pH 6.0
rat FcRn (rat) = rat FcRn (rat) (UniProt P13599); assay: BIAcore, FcRn immobilised
[3] = target: T1, human CD20 on WIL2-S cells (human, UniProt P11836 1-297); assay: cell-based ELISA, WIL2-S cells; conc. 2H7.v16 / conc. variant
T1 construct: whole, on cells; also called CD20 antigen; hCD20
T1 sequence (looked up): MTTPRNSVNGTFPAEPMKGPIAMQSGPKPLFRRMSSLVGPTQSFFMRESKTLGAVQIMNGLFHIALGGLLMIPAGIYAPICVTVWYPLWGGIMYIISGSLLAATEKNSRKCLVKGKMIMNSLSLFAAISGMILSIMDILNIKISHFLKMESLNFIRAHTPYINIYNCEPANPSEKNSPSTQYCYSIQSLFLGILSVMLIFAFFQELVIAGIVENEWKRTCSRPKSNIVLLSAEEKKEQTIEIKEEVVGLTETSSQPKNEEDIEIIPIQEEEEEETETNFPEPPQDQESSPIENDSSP
Method: To measure relative binding affinities to the CD20 antigen, a cell-based ELISA assay was developed. […] The cells were washed with PBS containing 1% FBS (assay buffer) and seeded at 250-300,000 cell/well in 96-well round bottom plates (Nunc, Roskilde, Denmark). […] The plates were buried in ice and incubated for 45 min. To remove the unbound antibody, 0.1 mL assay buffer were added to the wells. Plates were centrifuged and supernatants were removed. Cells were washed two more times with 0.2 mL assay buffer. Antibody bound to the plates was detected by adding peroxidase conjugated goat anti-human Fc antibody (Jackson ImmunoResearch, West Grove, Pa.) to the plates. After a 45 min incubation, cells were washed as described before. TMB substrate (3,3′,5,5′-tetramethyl benzidine; Kirkegaard & Perry Laboratories, Gaithersburg, Md.) was added to the plates. The reaction was stopped by adding 1 M phosphoric acid. Titration curves were fit with a four-parameter nonlinear regression curve-fitting program (KaleidaGraph, Synergy software, Reading, Pa.). The absorbance at the midpoint of the titration curve (mid-OD) and its corresponding concentration of the standard were determined. Then the concentration of each variant at this mid-OD was determined, and the concentration of the standard was divided by that of each variant.

[4] = target: T1, human CD20 on WIL2-S cells; assay: competitive Scatchard analysis, WIL2-S cells; labelled competitor 125I-2H7.v138; ± standard error of fit
Method: (§1) All dilutions were performed in binding assay buffer (DMEM media containing 0.5% bovine serum albumin, 25 mM HEPES pH 7.2, and 0.01% sodium azide). […] Serial dilutions (0.05 mL) of unlabelled antibody were added and mixed. 30,000 WIL2-S cells in a volume of 0.05 mL was added to each well. The plates were sealed and incubated at room temperature for 24 h, then centrifuged for 15 min at 2,500 RPM. The supernatant was then aspirated and the cell pellets were washed and centrifuged. The supernatant was again aspirated, and the pellets were dissolved in 1N NaOH and transferred to tubes for gamma counting.

[5] = target: T1, human CD20 on WIL2-S cells; assay: competitive Scatchard analysis, WIL2-S cells; labelled 125I-2H7.v511; ± standard error of fit
Method: as §1

soluble CD20 (Genentech) = target: T2, soluble CD20 (Genentech) (UniProt P11836 1-297, limits assumed); assay: ELISA on plate-coated soluble CD20, bound IgG detected with HRP anti-human Fab, OD450
T2 construct: Coated on ELISA plates; also called solubilized CD20
T2 sequence (looked up): T1 sequence (looked up)
Method: As an additional comparison of the binding activity of 2H7 variants, an ELISA was performed with solubilized CD20.
Serial dilutions of samples in 0.5% BSA were incubated on the plates for 2 h. After washing, bound antibodies were detected with HRP-conjugated anti-human Fab antibody (Goat anti-human Ig, Fab′2-HRP conjugate, from NB) using 3,3′,5,5′-tetramethyl benzidine (Kirkegaard and Perry Laboratories, Gaithersburg, Md.) as substrate. Absorbance was read at 450 nm. Titration curves were fit with a four-parameter nonlinear regression curve-fitting program (KaleidaGraph; Synergy Software, Reading, Pa.). Concentrations of antibody variants corresponding to the midpoint absorbance of the titration curve of the standard were calculated.

Chain of rat FcRn (rat) (P13599 23-298 limits assumed): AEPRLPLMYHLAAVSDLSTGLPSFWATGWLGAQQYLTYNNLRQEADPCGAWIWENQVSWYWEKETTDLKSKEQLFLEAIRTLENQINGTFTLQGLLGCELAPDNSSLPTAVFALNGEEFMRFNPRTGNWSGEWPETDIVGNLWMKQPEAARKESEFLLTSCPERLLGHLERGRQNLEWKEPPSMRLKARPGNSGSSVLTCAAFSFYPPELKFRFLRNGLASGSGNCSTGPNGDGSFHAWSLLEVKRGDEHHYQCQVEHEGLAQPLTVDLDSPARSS

Molecule: soluble Fc variant N434F
- fold increase in affinity over wild-type Fc (human FcRn (human) [2]): 9 fold

Molecule: soluble Fc variant N434A+E380A+T307A
- fold increase in affinity over wild-type Fc (human FcRn (human) [2]): 14 fold

B1: humanized 2H7.v166 (antibody, human IgG1, kappa, V domains shown)
VH: EVQLVESGGGLVQPGGSLRLSCAASGYTFTSYNMHWVRQAPGKGLEWVGAIYPGNGDTSYNQKFKGRFTISVDKSKNTLYLQMNSLRAEDTAVYYCARVVYYGGDWYFDVWGQGTLVTVSS
VL: DIQMTQSPSSLSASVGDRVTITCRASSSVSYMHWYQQKPGKAPKPLIYAPSNLASGVPSRFSGSGSGTDFTLTISSLQPEDFATYYCQQWSFNPPTFGQGTKVEIKR
notes: IgG1; changes vs v16
- Relative binding [3]: 0.99 ratio

B2: humanized 2H7.v511 (antibody, human IgG1, kappa)
heavy: EVQLVESGGGLVQPGGSLRLSCAASGYTFTSYNMHWVRQAPGKGLEWVGAIYPGNGATSYNQKFKGRFTISVDKSKNTLYLQMNSLRAEDTAVYYCARVVYYSYRYWYFDVWGQGTLVTVSSASTKGPSVFPLAPSSKSTSGGTAALGCLVKDYFPEPVTVSWNSGALTSGVHTFPAVLQSSGLYSLSSVVTVPSSSLGTQTYICNVNHKPSNTKVDKKVEPKSCDKTHTCPPCPAPELLGGPSVFLFPPKPKDTLMISRTPEVTCVVVDVSHEDPEVKFNWYVDGVEVHNAKTKPREEQYNATYRVVSVLTVLHQDWLNGKEYKCKVSNAALPAPIAATISKAKGQPREPQVYTLPPSREEMTKNQVSLTCLVKGFYPSDIAVEWESNGQPENNYKTTPPVLDSDGSFFLYSKLTVDKSRWQQGNVFSCSVMHEALHNHYTQKSLSLSPGK
light: DIQMTQSPSSLSASVGDRVTITCRASSSVSYLHWYQQKPGKAPKPLIYAPSNLASGVPSRFSGSGSGTDFTLTISSLQPEDFATYYCQQWAFNPPTFGQGTKVEIKRTVAAPSVFIFPPSDEQLKSGTASVVCLLNNFYPREAKVQWKVDNALQSGNSQESVTEQDSKDSTYSLSSTLTLSKADYEKHKVYACEVTHQGLSSPVTKSFNRGEC
notes: Full-length IgG1; VH D56A, N100Y, S100aR; VL M32L, S92A; Fc S298A, K326A, E333A, K334A vs v16; also called hu2H7.v511
- Kd [4]: 0.11 nM
- Kd [5]: 0.45 nM
- EC50 (read off the curve) (soluble CD20 (Genentech)): ~0.02 µg/mL

Other lines, results leading:

- Kd (human FcRn (human) [1]): 700 nM
Molecule: parental hingeless Fc (wild-type)

- fold increase in affinity over wild-type Fc (human FcRn (human) [2]): 2.7 fold
Molecule: soluble Fc variant N434A

- Kd (human FcRn (human) [1]): 4 nM
- fold better binding relative to wild-type Fc (rat FcRn (rat)): 10 fold
- fold increase in affinity over wild-type Fc (human FcRn (human) [2]): 170 fold
Molecule: soluble Fc variant N434W
